In article PMC8677719:

What follows are sequences tested on GST-Co-NF-kB RHD-only (Capsaspora owczarzaki) (assay: PBM). Settings: ~300 nM protein; EMSA: 10 mM HEPES pH 7.8, 50 mM KCl, 1 mM DTT, 1 mM EDTA, 4% glycerol, 40 ug/ml poly-dI-dC, 2X BSA, 50 ug 293T extract, 30 C 30 min; PBM: 6 mM HEPES pH 7.8 ….
Sequence “CCGATTAACATCACGGAATTCCCTGATGTTAATCGG (double strand) [PBM probe CGGAATTCCC]” has a binding signal of 3.4 PBM z-score. In the case of “CCGATTAACATCAGGAATTCCCCTGATGTTAATCGG (double strand) [PBM probe GGAATTCCCC]”, the binding signal is reported as 7.64 PBM z-score. In the case of “CCGATTAACATCAGGGAATTCCCTGATGTTAATCGG (double strand) [PBM probe GGGAATTCCC]”, the binding signal is reported as 7.25 PBM z-score. “CCGATTAACATCAAGGAATTCCCTGATGTTAATCGG (double strand) [PBM probe AGGAATTCCC]” was tested, and the binding signal was 4.22 PBM z-score. Work on “CCGATTAACATCAGGAATTCCCATGATGTTAATCGG (double strand) [PBM probe GGAATTCCCA]” yielded a binding signal of 4.61 PBM z-score.
